Drawing on PMC6089974, this text covers Km, kcat and kcat/Km for two proteins.

Holding throughout (assay): purified protein
Substrate in series [1]: O=[N+]([O-])c1ccc(O[C@H]2C=C(CO)[C@H](O)[C@H](O)[C@H]2F)c([N+](=O)[O-])c1
The settings on record: 50 mM HEPES pH 7.4, 37 °C, covalent intermediate slowly hydrolysed, apparent binding constant.

Substrate in series [2]: O=[N+]([O-])c1ccc(O[C@H]2O[C@H](CO)[C@H](O)[C@H](O)[C@H]2F)c([N+](=O)[O-])c1
The note with it: 50 mM HEPES pH 7.4, 37 °C, printed Km does not agree with printed kcat and kcat/Km (possible misprint).

Substrate in series [3]: O=[N+]([O-])c1ccc(O[C@H]2C=C(CO)[C@H](O)[C@H](O)[C@H]2O)c([N+](=O)[O-])c1
The settings on record: 50 mM HEPES pH 7.4, 37 °C, covalent intermediate slowly hydrolysed, 3b equilibrates in D2O with its C-2 aryloxy isomer (~2:1).

Substrate in series [4]: O=[N+]([O-])c1ccc(O[C@H]2O[C@H](CO)[C@H](O)[C@H](O)[C@H]2O)cc1
The note with it: 50 mM HEPES pH 7.4, 37 °C, acid/base mutant.

Changes are numbered by the printed parent chain. Numbers in names are those of the source.

B1: TmGalA (Thermotoga maritima MSB8) (protein)
chain: MEIFGKTFREGRFVLKEKNFTVEFAVEKIHLGWKISGRVKGSPGRLEVLRTKAPEKVLVNNWQSWGPCRVVDAFSFKPPEIDPNWRYTASVVPDVLERNLQSDYFVAEEGKVYGFLSSKIAHPFFAVEDGELVAYLEYFDVEFDDFVPLEPLVVLEDPNTPLLLEKYAELVGMENNARVPKHTPTGWCSWYHYFLDLTWEETLKNLKLAKNFPFEVFQIDDAYEKDIGDWLVTRGDFPSVEEMAKVIAENGFIPGIWTAPFSVSETSDVFNEHPDWVVKENGEPKMAYRNWNKKIYALDLSKDEVLNWLFDLFSSLRKMGYRYFKIDFLFAGAVPGERKKNITPIQAFRKGIETIRKAVGEDSFILGCGSPLLPAVGCVDGMRIGPDTAPFWGEHIEDNGAPAARWALRNAITRYFMHDRFWLNDPDCLILREEKTDLTQKEKELYSYTCGVLDNMIIESDDLSLVRDHGKKVLKETLELLGGRPRVQNIMSEDLRYEIVSSGTLSGNVKIVVDLNSREYHLEKEGKSSLKKRVVKREDGRNFYFYEEGERE
For the protein B1, in series [1], the Km came to 4.1 ± 0.9 µM, the kcat was found to be 0.000229 ± 1.1e-05 s⁻¹ and the kcat/Km turned out to be 56 ± 13 M⁻¹ s⁻¹. The Km in series [2] is 253 ± 8 µM. The Km in series [3] turned out to be 1.68 ± 0.14 µM.

B2: TmGalA (Thermotoga maritima MSB8; D387A) (protein)
chain: B1 chain with D387A
With B2, in series [4], the Km is 184 ± 7 µM, the kcat came out at 0.036 s⁻¹ and the kcat/Km was determined as 196 M⁻¹ s⁻¹.

One may read the Km as the concentration of substrate that gives half-maximal velocity. Broadly, the kcat is the maximal rate divided by the concentration of active sites. The kcat/Km is the turnover number divided by the Michaelis constant.
